Measured values as given in publication PMC7467691, “Meiotic chromosome synapsis depends on multivalent SYCE1-SIX6OS1 interactions that are disrupted in cases of human infertility” (Science Advances, 2020).
Each block holds one binder with its values, some of them ahead of it.

Tests used:
[1] = molecular target: T1, SIX6OS1N (human SIX6OS1 amino acids 1 to 67) (human, UniProt Q8N1H7 1-67); assay: SEC-MALS; 5 to 20 mg/ml in 20 mM tris (pH 8.0), 150 mM KCl, 2 mM DTT; Superdex 200 Increase 10/300 GL at 0.5 ml/min; conditions: both partners purified
T1 construct: Protein SIX6OS1, human, amino acids 1 to 67; also called SIX6OS1 1–67; source: E. coli BL21(DE3), co-expressed with SYCE1 constructs, purified as complex (MBP removed by TEV); not shown: MBP, N-terminal, cleaved
T1 sequence (looked up): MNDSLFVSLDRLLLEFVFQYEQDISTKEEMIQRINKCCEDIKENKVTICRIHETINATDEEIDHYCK

[2] = molecular target: the molecule itself; assay: as above

- stoichiometry N [1]: 1
B1: SYCE1POF (human SYCE1 amino acids 1 to 240, truncated product of the POF mutation c.613C>T, p.Gln241*) (domain or fragment, UniProt Q8N0S2 1-240, looked up)
chain: MAGRSLTSKAEPTAGAVDRAEKAGGQDTSSQKIEDLMEMVQKLQKVGSLEPRVEVLINRINEVQQAKKKANKDLGEARTICEALQKELDSLHGEKVHLKEILSKKQETLRILRLHCQEKESEAHRKHTMLQECKERISALNLQIEEEKNKQRQLRLAFEEQLEDLMGQHKDLWDFHMPERLAKEICALDSSKEQLLKEEKLVKATLEDVKHQLCSLCGAEGPSTLDEGLFLRSQEAAATV
notes: SYCE1, human, amino acids 1 to 240, relative to the canonical 351-amino acid isoform; product of the premature stop codon p.Gln241*; The purified material held about equal amounts of the full protein and a degradation product; source: also co-expressed with SIX6OS1N
- stoichiometry N [2]: 2

- stoichiometry N [1]: 1
B2: full-length SYCE1 (human) (natural protein, UniProt Q8N0S2 1-351, looked up)
chain: MAGRSLTSKAEPTAGAVDRAEKAGGQDTSSQKIEDLMEMVQKLQKVGSLEPRVEVLINRINEVQQAKKKANKDLGEARTICEALQKELDSLHGEKVHLKEILSKKQETLRILRLHCQEKESEAHRKHTMLQECKERISALNLQIEEEKNKQRQLRLAFEEQLEDLMGQHKDLWDFHMPERLAKEICALDSSKEQLLKEEKLVKATLEDVKHQLCSLCGAEGPSTLDEGLFLRSQEAAATVQLFQEEHRKAEELLAAAAQRHQQLQQKCQQQQQKRQRLKEELEKHGMQVPAQAQSTQEEEAGPGDVASPKPLKGERPGAAHQAGPDVLIGQEDTLHPDLSPRGFQEIKELF
notes: SYCE1, human, full length; canonical 351-amino acid isoform; source: E. coli BL21(DE3), purified; co-expressed with SIX6OS1N for the complex

- stoichiometry N [1]: 1
B3: SYCE1core (human SYCE1 amino acids 25 to 179) (domain or fragment, UniProt Q8N0S2 25-179, looked up)
chain: GQDTSSQKIEDLMEMVQKLQKVGSLEPRVEVLINRINEVQQAKKKANKDLGEARTICEALQKELDSLHGEKVHLKEILSKKQETLRILRLHCQEKESEAHRKHTMLQECKERISALNLQIEEEKNKQRQLRLAFEEQLEDLMGQHKDLWDFHMPE
notes: Synaptonemal complex central element protein 1 (SYCE1), human, amino acids 25 to 179, numbers relative to the canonical 351-amino acid isoform; also called SYCE1 structural core; SYCE1 25–179; source: co-expressed with SIX6OS1N for the complex
- binding result [2]: binds
